# Source: patent US8900593B2 (Indiana University Research and Technology Corporation, priority 2007, dated 2014)
# Read-outs that look alike come from different tables or passages of the source. Bridges are numbered along the chain shown (N, C = ends). Where no end group is shown, it is not given here. [ ]: non-standard residue; d: D form. The star is where a group is joined. Isobutyryl(2-imidazol-4-yl) = CC(C)(C(=O)*)c1c[nH]cn1; PEG = not defined here; Aib = CC(C)(N)C(=O)O
# Tests used:
# GLP-1 receptor = target: T1, GLP-1 receptor (Homo sapiens, UniProt P43220); assay: Functional assay-cAMP synthesis, luciferase reporter in HEK293 cells co-transfected with GLP-1 receptor; assay type: cell-based; conditions: for GLP 1 Receptor Relative Potency (%): Table 11, relative to GLP-1-VKGG30 (SEQ ID NO: 527) = 100; for Percent Potency Relative to Native Ligand GLP-1Rec: relative to native GLP-1
# T1 construct: expressed in transfected cells; host or cells: HEK293
# glucagon receptor = target: T2, glucagon receptor (Homo sapiens, UniProt P47871); assay: Functional assay-cAMP synthesis, luciferase reporter in HEK293 cells co-transfected with glucagon receptor; assay type: cell-based; conditions: for Parent w/PEG % Potency Relative to Native GR / Parent w/o PEG % Potency Relative to Native GR: Table 12; for Parent w/PEG % Potency Relative to Native GR: pegylated peptide; for Parent w/o PEG % Potency Relative to Native GR: peptide without PEG; for Percent Potency Relative to Native Ligand GRec: relative to native glucagon
# T2 construct: expressed in transfected cells; host or cells: HEK293
# [1] = read-out: cAMP Induction Glucagon Receptor EC50, Table 3, pegylated glucagon analogs
# T1 sequence (P43220 24-463, species assumed): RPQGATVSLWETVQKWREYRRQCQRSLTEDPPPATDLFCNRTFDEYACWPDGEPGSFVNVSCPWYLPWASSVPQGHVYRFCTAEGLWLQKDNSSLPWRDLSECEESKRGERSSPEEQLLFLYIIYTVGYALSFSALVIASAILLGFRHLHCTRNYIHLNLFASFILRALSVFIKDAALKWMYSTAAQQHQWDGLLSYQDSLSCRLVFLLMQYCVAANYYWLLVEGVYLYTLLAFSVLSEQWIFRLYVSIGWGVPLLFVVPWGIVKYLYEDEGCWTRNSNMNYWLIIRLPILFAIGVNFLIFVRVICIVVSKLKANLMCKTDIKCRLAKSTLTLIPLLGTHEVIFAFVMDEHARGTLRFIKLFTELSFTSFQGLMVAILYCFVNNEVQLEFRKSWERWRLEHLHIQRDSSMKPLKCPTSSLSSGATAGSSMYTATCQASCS
# T2 sequence (P47871 26-477): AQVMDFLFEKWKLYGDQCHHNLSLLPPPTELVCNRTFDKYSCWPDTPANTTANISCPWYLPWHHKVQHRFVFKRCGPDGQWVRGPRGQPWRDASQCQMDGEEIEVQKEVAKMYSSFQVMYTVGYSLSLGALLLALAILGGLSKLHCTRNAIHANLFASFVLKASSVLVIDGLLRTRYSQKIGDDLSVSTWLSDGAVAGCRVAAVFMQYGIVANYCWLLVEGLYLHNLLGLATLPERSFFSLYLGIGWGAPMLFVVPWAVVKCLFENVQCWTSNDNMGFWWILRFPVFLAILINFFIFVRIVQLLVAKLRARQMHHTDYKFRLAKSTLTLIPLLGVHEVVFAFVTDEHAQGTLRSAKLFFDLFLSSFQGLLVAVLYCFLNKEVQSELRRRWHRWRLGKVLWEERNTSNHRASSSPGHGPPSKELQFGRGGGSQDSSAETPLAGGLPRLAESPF
molecule,measurement,setting,value
CSCC[C@H](NC(=O)[C@H](CC(C)C)NC(=O)[C@H](Cc1c[nH]c2ccccc12)NC(=O)[C@H](CCC(N)=O)NC(=O)[C@@H](NC(=O)[C@H](Cc1ccccc1)NC(=O)[C@H](CC(=O)O)NC(=O)[C@H](CCC(N)=O)NC(=O)[C@H](C)NC(=O)[C@H](CCCNC(=N)N)NC(=O)[C@H](CCCNC(=N)N)NC(=O)[C@H](CO)NC(=O)[C@H](CC(=O)O)NC(=O)[C@H](CC(C)C)NC(=O)[C@H](Cc1ccc(O)cc1)NC(=O)[C@H](CCCCN)NC(=O)[C@H](CO)NC(=O)[C@H](Cc1ccc(O)cc1)NC(=O)[C@H](CC(=O)O)NC(=O)[C@H](CO)NC(=O)[C@@H](NC(=O)[C@H](Cc1ccccc1)NC(=O)[C@@H](NC(=O)CNC(=O)[C@H](CCC(N)=O)NC(=O)[C@H](CO)NC(=O)[C@@H](N)Cc1c[nH]cn1)[C@@H](C)O)[C@@H](C)O)C(C)C)C(=O)N[C@@H](CC(N)=O)C(=O)NCC(=O)NCC(=O)N1CCC[C@H]1C(=O)N[C@@H](CO)C(=O)N[C@@H](CO)C(=O)NCC(=O)N[C@@H](C)C(=O)N1CCC[C@H]1C(=O)N1CCC[C@H]1C(=O)N1CCC[C@H]1C(=O)N[C@@H](CO)C(N)=O [-MNGG^30 PSSGAPPPS (SEQ ID NO: 522)],EC50,GLP-1 receptor,0.31 nM
same,GLP 1 Receptor Relative Potency (%),GLP-1 receptor,8%
Oxyntomodulin C24 PEG 20K: oxyntomodulin Cys24 pegylated with 20K PEG,EC50,"glucagon receptor; read-out: cAMP Induction Glucagon Receptor EC50, Table 2, analogs with C-terminus extension",0.97 ± 0.04 nM
"HX2QGT FTSDYSKYLDEQAAKEFIAWLMNC*a (H[Aib]QGTFTSDYSKYLDEQAAKEFIAWLMNC-NH2; also: optional PEG on Cys29) [Chimera AIB2, Cys29 (SEQ ID NO: 487), X2=AIB; C* is Cys or Cys attached to PEG]",Parent w/PEG % Potency Relative to Native GLP-1R,"GLP-1 receptor; Table 12, pegylated peptide",54.3%
same,Parent w/o PEG % Potency Relative to Native GLP-1R,"GLP-1 receptor; Table 12, peptide without PEG",124.6%
same,Parent w/PEG % Potency Relative to Native GR,glucagon receptor,5.6%
same,Parent w/o PEG % Potency Relative to Native GR,glucagon receptor,20.1%
HSQGTFTSDYSKYLDERRAKDFVQW LMNTa [E16K20 Gluc-NH2 Lac] (HSQGTFTSDYSKYLDERRAKDFVQWLMNT-NH2; lactam 16-20; N-terminus assumed; SMILES CSCC[C@H](NC(=O)[C@H](CC(C)C)NC(=O)[C@H](Cc1c[nH]c2ccccc12)NC(=O)[C@H](CCC(N)=O)NC(=O)[C@@H](NC(=O)[C@H](Cc1ccccc1)NC(=O)[C@H](CC(=O)O)NC(=O)[C@@H]1CCCCNC(=O)CC[C@H](NC(=O)[C@H](CC(=O)O)NC(=O)[C@H](CC(C)C)NC(=O)[C@H](Cc2ccc(O)cc2)NC(=O)[C@H](CCCCN)NC(=O)[C@H](CO)NC(=O)[C@H](Cc2ccc(O)cc2)NC(=O)[C@H](CC(=O)O)NC(=O)[C@H](CO)NC(=O)[C@@H](NC(=O)[C@H](Cc2ccccc2)NC(=O)[C@@H](NC(=O)CNC(=O)[C@H](CCC(N)=O)NC(=O)[C@H](CO)NC(=O)[C@@H](N)Cc2c[nH]cn2)[C@@H](C)O)[C@@H](C)O)C(=O)N[C@@H](CCCNC(=N)N)C(=O)N[C@@H](CCCNC(=N)N)C(=O)N[C@@H](C)C(=O)N1)C(C)C)C(=O)N[C@@H](CC(N)=O)C(=O)N[C@H](C(N)=O)[C@@H](C)O),Percent Potency Relative to Native Ligand GLP-1Rec,"GLP-1 receptor; Table 9, E16/lactam analogs",63.0%
same,Percent Potency Relative to Native Ligand GRec,"glucagon receptor; Table 9, E16/lactam analogs",180.8%
Glucagon Cys^17 Mal-PEG-5K [Glucagon C17 PEG 5K],EC50,glucagon receptor; [1],0.82 ± 0.15 nM
"X1SQGT FTSDYSKYLD EQAAK EFIAW LMNC*a ([Isobutyryl(2-imidazol-4-yl)]SQGTFTSDYSKYLDEQAAKEFIAWLMNC(PEG)-NH2; reading uncertain) [Chimera DMIA1, Cys29 (SEQ ID NO: 520), X1=DMIA; C* is Cys attached to PEG in the tested form]",Parent w/PEG % Potency Relative to Native GLP-1R,"GLP-1 receptor; Table 12, pegylated peptide",27.3%
same,Parent w/PEG % Potency Relative to Native GR,glucagon receptor,5.3%
HX2QGT FTSDY SKYLD ERAAK DFVC*W LMNGG PSSGA PPPSa (H[Aib]QGTFTSDYSKYLDERAAKDFVC(PEG)WLMNGGPSSGAPPPS-NH2; reading uncertain) [X2=AIB; C* is Cys attached to PEG in the tested form],Parent w/PEG % Potency Relative to Native GLP-1R,"GLP-1 receptor; Table 12, pegylated peptide",88.5%
same,Parent w/PEG % Potency Relative to Native GR,glucagon receptor,0.1%
CSCC[C@H](NC(=O)[C@H](CC(C)C)NC(=O)[C@H](Cc1c[nH]c2ccccc12)NC(=O)[C@H](CCC(N)=O)NC(=O)[C@@H](NC(=O)[C@H](Cc1ccccc1)NC(=O)[C@H](CC(=O)O)NC(=O)[C@H](CCCCN)NC(=O)[C@H](C)NC(=O)[C@H](CCCNC(=N)N)NC(=O)[C@H](CCCNC(=N)N)NC(=O)[C@H](CCC(=O)O)NC(=O)[C@H](CC(=O)O)NC(=O)[C@H](CC(C)C)NC(=O)[C@H](Cc1ccc(O)cc1)NC(=O)[C@H](CCCCN)NC(=O)[C@H](CO)NC(=O)[C@H](Cc1ccc(O)cc1)NC(=O)[C@H](CC(=O)O)NC(=O)[C@H](CO)NC(=O)[C@@H](NC(=O)[C@H](Cc1ccccc1)NC(=O)[C@@H](NC(=O)CNC(=O)[C@H](CCC(N)=O)NC(=O)[C@H](CO)NC(=O)[C@@H](N)Cc1c[nH]cn1)[C@@H](C)O)[C@@H](C)O)C(C)C)C(=O)N[C@@H](CC(=O)O)C(=O)NCC(=O)NCC(=O)N1CCC[C@H]1C(=O)N[C@@H](CO)C(=O)N[C@@H](CO)C(=O)NCC(=O)N[C@@H](C)C(=O)N1CCC[C@H]1C(=O)N1CCC[C@H]1C(=O)N1CCC[C@H]1C(=O)N[C@@H](CO)C(N)=O,EC50,GLP-1 receptor,0.02 nM
"HX2QGT FTSDY SKYLD EQAAK EFIC*W LMNTa [Chimera AIB2, Cys24 (SEQ ID NO: 486)]",Parent w/PEG % Potency Relative to Native GLP-1R,"GLP-1 receptor; Table 12, pegylated peptide",82.5%
same,Parent w/o PEG % Potency Relative to Native GLP-1R,"GLP-1 receptor; Table 12, peptide without PEG",160.6%
same,Parent w/PEG % Potency Relative to Native GR,glucagon receptor,2.6%
same,Parent w/o PEG % Potency Relative to Native GR,glucagon receptor,15.4%
"X1SQGT FTSDYSKYLD EQAAK EFIC*W LMNTa [Chimera DMIA1, Cys24 (SEQ ID NO: 519)]",Parent w/PEG % Potency Relative to Native GLP-1R,"GLP-1 receptor; Table 12, pegylated peptide",19.3%
same,Parent w/o PEG % Potency Relative to Native GLP-1R,"GLP-1 receptor; Table 12, peptide without PEG",64.5%
same,Parent w/PEG % Potency Relative to Native GR,glucagon receptor,6.9%
same,Parent w/o PEG % Potency Relative to Native GR,glucagon receptor,28.9%
"HSEGTFTSDYSKYLDERRAQDFVQW LMNTa (HSEGTFTSDYSKYLDERRAQDFVQWLMNT-NH2) [E3, E16 Gluc-NH2]",Percent Potency Relative to Native Ligand GLP-1Rec,GLP-1 receptor; Table 4,28.8%
same,Percent Potency Relative to Native Ligand GRec,glucagon receptor; Table 4,1.6%
"HX2QGT FTSDY SKYLD ERAAK DFVC*W LMNTa (H[Aib]QGTFTSDYSKYLDERAAKDFVC(PEG)WLMNT-NH2; reading uncertain) [E16, K20AIB2, A18 Cys24 (SEQ ID NO: 492), X2=AIB; C* is Cys attached to PEG in the tested form]",Parent w/PEG % Potency Relative to Native GLP-1R,"GLP-1 receptor; Table 12, pegylated peptide",73.5%
same,Parent w/PEG % Potency Relative to Native GR,glucagon receptor,1.1%
HX2QGT FTSDY SKYLD EQAAK EFIC*W LMNGG PSSGA PPPSa (H[Aib]QGTFTSDYSKYLDEQAAKEFICWLMNGGPSSGAPPPS-NH2; also: optional PEG on Cys24) [X2=AIB; C* is Cys or Cys attached to PEG],Parent w/PEG % Potency Relative to Native GLP-1R,"GLP-1 receptor; Table 12, pegylated peptide",95.4%
same,Parent w/o PEG % Potency Relative to Native GLP-1R,"GLP-1 receptor; Table 12, peptide without PEG",457.8%
same,Parent w/PEG % Potency Relative to Native GR,glucagon receptor,0.2%
same,Parent w/o PEG % Potency Relative to Native GR,glucagon receptor,2.5%
Glucagon Cys^29 Mal-PEG-5K [Glucagon C29 PEG 5K],EC50,glucagon receptor; [1],0.96 ± 0.07 nM
X1SQGT FTSDY SKYLD EQAAK EFIC*W LMNTa,Parent w/PEG % Potency Relative to Native GLP-1R,GLP-1 receptor,12.5%
same,Parent w/o PEG % Potency Relative to Native GLP-1R,GLP-1 receptor,82.5%
same,Parent w/PEG % Potency Relative to Native GR,glucagon receptor,19.1%
same,Parent w/o PEG % Potency Relative to Native GR,glucagon receptor,160.7%
"HSQGTFTSDYSKYLDEQAAKEFIAWLMNT-NH2 [E16 GLP(17-26)Glu(27-29)-NH2, HSQGTFTSDYSKYLDEQAAKEFIAW LMNTa]",EC50,"glucagon receptor; Glucagon Receptor EC50(nM), Table 10, GLP-1 17-26 glucagon analogs",0.076 nM
"Glucagon Cys^24 maleimido,PEG-3.4K-dimer [Glucagon C24 Dimer]",EC50,glucagon receptor; [1],0.1 ± 0.05 nM
"CC[C@H](C)[C@H](NC(=O)[C@H](Cc1ccccc1)NC(=O)[C@H](CCC(=O)O)NC(=O)[C@H](CCCCN)NC(=O)[C@H](C)NC(=O)[C@H](C)NC(=O)[C@H](CCC(N)=O)NC(=O)CNC(=O)[C@H](CCC(=O)O)NC(=O)[C@H](CC(C)C)NC(=O)[C@H](Cc1ccc(O)cc1)NC(=O)[C@H](CO)NC(=O)[C@H](CO)NC(=O)[C@@H](NC(=O)[C@H](CC(=O)O)NC(=O)[C@H](CO)NC(=O)[C@@H](NC(=O)[C@H](Cc1ccccc1)NC(=O)[C@@H](NC(=O)CNC(=O)[C@H](CCC(=O)O)NC(=O)[C@H](C)NC(=O)[C@@H](N)Cc1c[nH]cn1)[C@@H](C)O)[C@@H](C)O)C(C)C)C(=O)N[C@@H](C)C(=O)N[C@@H](Cc1c[nH]c2ccccc12)C(=O)N[C@@H](CC(C)C)C(=O)N[C@H](C(=O)N[C@@H](CCCCN)C(=O)NCC(=O)NCC(N)=O)C(C)C [GLP-1-VKGG^30 (SEQ ID NO: 527), HAEGTFTSDVSSYLEGQAAKEFIAW LVKGGa, reference compound]",GLP 1 Receptor Relative Potency (%),GLP-1 receptor,100%
same,EC50,GLP-1 receptor; read-out: GLP 1 Receptor EC50,0.025 nM
CSCC[C@H](NC(=O)[C@H](CC(C)C)NC(=O)[C@H](Cc1c[nH]c2ccccc12)NC(=O)[C@H](CCC(N)=O)NC(=O)[C@@H](NC(=O)[C@H](Cc1ccccc1)NC(=O)[C@H](CC(=O)O)NC(=O)[C@H](CCC(N)=O)NC(=O)[C@H](C)NC(=O)[C@H](CCCNC(=N)N)NC(=O)[C@H](CCCNC(=N)N)NC(=O)[C@H](CO)NC(=O)[C@H](CC(=O)O)NC(=O)[C@H](CC(C)C)NC(=O)[C@H](Cc1ccc(O)cc1)NC(=O)[C@H](CCCCN)NC(=O)[C@H](CO)NC(=O)[C@H](Cc1ccc(O)cc1)NC(=O)[C@H](CC(=O)O)NC(=O)[C@H](CO)NC(=O)[C@@H](NC(=O)[C@H](Cc1ccccc1)NC(=O)[C@@H](NC(=O)CNC(=O)[C@H](CCC(N)=O)NC(=O)[C@H](CO)NC(=O)[C@@H](N)Cc1c[nH]cn1)[C@@H](C)O)[C@@H](C)O)C(C)C)C(=O)N[C@@H](CC(=O)O)C(=O)NCC(=O)NCC(=O)N1CCC[C@H]1C(=O)N[C@@H](CO)C(=O)N[C@@H](CO)C(=O)NCC(=O)N[C@@H](C)C(=O)N1CCC[C@H]1C(=O)N1CCC[C@H]1C(=O)N1CCC[C@H]1C(=O)N[C@@H](CO)C(N)=O [-MDGG^30 PSSGAPPPS (SEQ ID NO: 525)],EC50,GLP-1 receptor,0.13 nM
SEQ ID NO: 22: glucagon analog substituting the native glutamine at position 3 with glutamic acid,selectivity for the GLP-1 receptor,GLP-1 receptor; versus glucagon receptor,approximately a tenfold selectivity
